{"source": "patent US20180044401A1", "key": {"[1]": {"biological_target": "IgG-Fc of anti-TNFα monoclonal antibody (Remicade)", "test": "SPR Biacore, Fc immobilized at about 10000 RU, response 1 minute after addition"}, "[2]": {"biological_target": "IgG-Fab prepared from anti-TNFα monoclonal antibody (Remicade)", "test": "SPR Biacore, Fab immobilized at about 10000 RU, response 1 minute after addition"}}, "data": [{"substance": "peptide having the amino acid sequence of β1 domain of Protein G (SEQ ID NO: 32) (from UniProt P06654 228-282)", "values": [{"measurement": "inclination of approximate curve (binding response against peptide concentration)", "setting": "[1]", "value": 0.9}, {"measurement": "inclination of approximate curve (binding response against peptide concentration)", "setting": "[2]", "value": 0.1}]}]}
